Reference: the supplement of paper PMC10567573

B1: DLC1 (parent)
chain: HVTHWMGQPFNSDDRNTACHHGLV

Variants of: B1
Test: protein stability index of a GFP-peptide fusion (GPS, HEK-293T) (PSI 1-6); higher = more stable
Conditions: c terminus: a fixed tail appended
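Note: lentivirally expressed fusions sorted by FACS into six bins by GFP to DsRed ratio, PSI derived from sequencing read proportions per bin multiplied by bin number.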

Protein stability index, by site and new letter:
H21: V 1.9, E 2.51, T 2.02, S 2.23, N 2.66, F 1.64, I 1.85, R 2.26, K 2.7, W 1.69, D 2.58, C 2.69, G 2.37, A 2.38, Y 1.85, Q 2.44, L 1.93, M 2.21, P 1.95
R15: Q 2.01, C 1.99, H 2.06, L 2.29, K 2.11, P 1.82, Y 1.74, E 2.32, A 2.22, V 2.11, M 1.83, T 2.31, I 1.95, W 1.73, S 2.4, F 2.25, N 2.38, D 2.23, G 1.94
G7: K 1.89, P 2.24, L 2.26, T 1.91, V 1.84, Q 2.07, I 2.03, M 1.39, S 1.65, R 1.76, N 2.23, W 3.07, Y 1.88
C19: L 2.02, E 2.92, F 1.25, H 2.13, Q 2.61, M 2.31, N 2.43, T 2.61, G 1.96, D 2.68, P 2.43, S 2.41, A 2.5, W 1.48, Y 1.8, K 2.2, R 2.4, I 2.4, V 2.04
N16: Q 2.67, W 1.3, M 1.76, E 2.35, S 1.81, P 1.64, I 2.13, A 1.75, T 1.99, D 2.35, L 1.8, Y 2.32, H 2.43, K 1.98, C 2.54, V 1.22, R 2.16, G 1.97, F 1.92
N11: L 2.14, T 2.02, V 2.62, I 1.94, W 3.88, F 1.65, R 2.17, H 1.8, S 1.69, C 2.17, A 2.07, G 2.13, D 2.58, P 2.3, M 2.07, Y 2.26, E 2.58, Q 2.23, K 1.86
T17: F 2.06, G 2.04, L 1.68, I 2.25, A 1.99, V 2.1, S 2.36, R 1.99, M 1.72, D 2.65, P 2.17, Y 1.86, C 1.66, N 2.21, K 2.01, E 2.32, H 2.23, Q 2.38, W 1.82
S12: Y 1.78, H 2.04, N 2.55, D 2.62, I 2.05, M 2.61, G 2.34, R 2.01, W 1.92, Q 1.98, V 1.8, F 1.85, L 2.11, T 2.02, A 2.02, P 2.29, C 1.51, E 2.52, K 2.51
L23: R 2.47, D 2.84, Y 2.07, V 2.39, A 2.51, C 1.99, Q 2.38, H 2.46, M 2.13, E 2.75, K 2.27, N 2.37, I 1.92, F 2.02, G 2.49, T 2.26, W 1.86, S 2.24, P 2.17
F10: Q 2.5, Y 1.92, T 2.29, K 2.78, L 2.01, E 2.75, H 2.05, D 3.03, C 1.94, P 2.54, A 2.53, R 2.79, W 1.93, V 2.36, S 2.35, G 2.77, I 2.04, M 2.53, N 2.86
P9: E 2.3, C 1.75, A 2.36, N 2.2, L 2, Y 2.43, M 2.38, G 1.88, Q 2.4, R 2.21, F 1.43, D 1.99, K 1.9, H 2.23, W 1.6, V 1.55, I 1.75, T 2.29, S 2.06
G22: M 1.96, Y 1.6, C 2.17, A 2.49, Q 2.1, D 2.29, H 1.99, S 1.93, W 2.38, L 2.23, I 1.34, E 2.59, K 2, N 1.99, V 1.89, F 1.57, R 2.13, P 2.05, T 2.1
A18: Y 2.37, D 2.69, P 1.94, M 2.11, N 2.44, C 1.83, W 1.88, F 2.24, T 2.09, R 2, I 1.76, H 2.25, K 1.94, L 1.56, Q 2.47, G 2.06, V 2.33, E 2.53, S 2.21
Q8: Y 1.74, N 1.92, S 2.15, K 2.27, I 2.66, D 2.03, F 2.05, L 1.22, W 1.55, A 2.26, G 1.81, R 2.15, P 2.1, C 2.14, T 2.6, H 2.32, E 2.43, M 1.28, V 1.77
D14: Y 1.44, Q 2.31, R 2.01, W 1.65, T 1.99, E 1.7, L 1.31, N 1.86, G 1.86, K 1.47, I 1.53, V 1.71, F 2.35, C 1.68, A 1.9, S 1.83, P 2.16, H 2.66, M 1.64
D13: R 1.62, S 1.72, N 2.11, E 2.07, W 1.6, H 1.77, T 1.94, Y 2.26, V 1.37, M 1.13, L 2.05, G 2, Q 1.62, C 1.8, P 2.14, A 1.48, F 1.81, I 1.92, K 2.32
H20: Q 2.46, Y 2.16, D 2.36, F 2.3, N 2.2, P 2.5, S 2.25, K 2.41, E 2.44, C 2.25, G 2.16, M 1.79, R 2.25, I 2.13, A 2.37, W 2.46, T 2.25, V 2.34, L 1.6
V24: E 2.5, P 2.22, I 2.08, N 2.05, T 2.39, R 2.22, K 2.6, C 2.16, M 2.04, G 1.92, D 2.66, L 2.35, S 2.35, Q 2.19, H 2.28, F 1.45, A 2.31
